From the DeepSol protein solubility set

assay: soluble on expression in E. coli; label from the status in PepcDB or PDB records

| Sequence | soluble on expression in E. coli |
| --- | --- |
| MGSDKIHHHHHHMDIKQLKFLIALDETRHFGQAAARCNITQPTLSMRLRNLEEELGLPLVNRGQRFEGFTAPGERVLAWARTVLAAYDGLQAEAAACRGHLVGTLRLGVVPMSSFDPLPLLHRLHQLHPNLRFELSSLSSEQVLEQLASNRIDLGVSYLERLDSERFDSLTLDETRMGLLYDRRHFTFGDTPLSWADLVELPLGTLTSGMHFRQSIDHNFHSRGLQPNPLIQTDAVHQLLQAVHGGFCCAIMPLDGGLETLTEHLHLHPIADACTLARLGLIMRRSAPRSALAEACFALVAEIPR | not soluble |
| VGKEKREIELFVSDPELEAEVKAASEGKMKAAIKTEEKKAREAAIEEVKEEILESYKAKELENEAEILGEVAHILEMIEKDEMRRLISQDKIRPDGRKVNEIRP | not soluble |
| MEKKLLRKEVLITLKSQPQAYKSEVDCKLLEAFIKTKAYQNSCVIATYLSFDYEYNTQLLIKQALCDGKRVLVPKTYPKGKMIFVDYQKDNLRTTPFGLLEPVNDRAVEKASIDLIHVPGLIFNNKGFRIGYGAGYFDRYLSDFEGDTISTIYRCQRQDFVEEKHDVAVKEVLCLLEHHHHHH | soluble |
| GMNLDSYERTGLRVSLDLVNIATPGSRRGTPHTGGCVIEDLHDLLKDDPASVAQLGDDHVEGFVELARLLHTAIDALSNGQVATAATALNHLLRKHPATPELAQDPDGTWRLHHHPLDAELVPMWTAICAEGLAREIGHQNVRRFGICNAHRCDRVYFDTSRNGTRQYCSLACQNRVKAAAFRERRAT | soluble |
| MKGKMAIVISTLNNPWFVVLAETAKQRAEQLGYEATIFDSQNDTAKESAHFDAIIAAGYDAIIFNPTDADGSIANVKRAKEAGIPVFCVDRGINARGLAVAQIYSDNYYGGVLMGEYFVKFLKEKYPDAKEIPYAELLGILSAQPTWDRSNGFHSVVDQYPEFKMVAQQSAEFDRDTAYKVTEQILQAHPEIKAIWCGNDAMALGAMKACEAAGRTDIYIFGFDGAEDVINAIKEGKQIVATIMQFPKLMARLAVEWADQYLRGERSFPEIVPVTVELVTRENIDKYTAYGRKEEGSHHHHHH | soluble |
| SEQETRGANEAIDFNDELRNRREKLAALRQQGVAFPNDFRRDHTSDQLHEEFDAKDNQELESLNIEVSVAGRMMTRRIMGKASFVTLQDVGGRIQLYVARDSLPEGVYNDQFKKWDLGDIIGARGTLFKTQTGELSIHCTELRLLTKALRPLPDKFHGLQDQEVRYRQRYLDLIANDKSRQTFVVRSKILAAIRQFMVARGFMEVETPMMQVIPGGASARPFITHHNALDLDMYLRIAPELYLKRLVVGGFERVFEINRNFRNEGISVRHNPEFTMMELYMAYADYHDLIELTESLFRTLAQEVLGTTKVTYGEHVFDFGKPFEKLTMREAIKKYRPETDMADLDNFDAAKALAESIGITVEKSWGLGRIVTEIFDEVAEAHLIQPTFITEYPAEVSPLARRNDVNPEITDRFEFFIGGREIGNGFSELNDAEDQAERFQEQVNAKAAGDDEAMFYDEDYVTALEYGLPPTAGLGIGIDRMIMLFTNSHTIRDVILFPAMRPQK | soluble |
| MRQTNNKESTMKPTADILASIIEEVRPLTSKGIVADYIPALAKVPSDKLGIAVFTNQGEVITAGDAQEGFSIQSISKVLSLTLAMGLYQPDELWSRVGKEPSGQAFNSLIQLEMEQGIPRNPFINAGAIVVCDMLQSRLSAPRQRLLEFVRQLSGEPQIAYDKVVAASEMMHSDRNAAIAYLMRSFGNFHNEVIPVLHNYFHACALKMSCVELAKTFSYLANKGVSVVTGETVITPTQSKQTNALLATCGLYDGAGEFAYRVGMPGKSGVGGGIIAVVPGEMTIAVWSPALDQSGNSLAGTRALELLAQRIGRSIFLEHHHHHH | soluble |
| MGSDKIHHHHHHMNLAYLILAHNNPNHLQKLISSLDTSDVHFFVHIDGKSNILPFQANLISNKVTFVQERRNIFWGEFSIVQATIDLMKTALNKQDFDYLILISGSDYPLKNAQYIKDFFSKNKGSEFINLVELPNEQASKNLNRLYQYRISFSSKNIVLRAFRRVINCIINDLFHWQRNYRKSLGELKPYAGSQWWALSGDACNYILNFIAKNPEILKFFQTALIPDESFFHTILANSDFLTKVKPNLTFTKWNDTAHPEYITVEIVRDFKGMDAIYNHSIGGYGEVLFARKFAPDSDEVIKFINDNIA | not soluble |
| MAMEIGEDEWKVCCGSSEFAKQMSTSGPLTSQEAIYTARDIWFNQVNVTDWLEAFSAHPQIGNTPSPSINSDFARRSVSEQSTAFATTSASALQELAEWNVLYKKKFGFIFIICASGRTHAEMLHALKERYENRPIVELEIAAMEQMKITELRMAKLFSDKAKVISETDSSSSPVSTKPQDRLRIIGGHLNVAAEAKAPKRSRPPITTHVLDVSRGAPAAGVEVHLEVWSGTTGPSFVHGGGGVWSSVGTSATDRDGRSGPLMDLVDALNPGTYRISFDTAKYSPGCFFPYVSIVFQVTESQKWEHFHVPLLLAPFSFSTYRGS | soluble |
| GPGSMRSAQLPSKLSSAAGSCKHWVVSVPNSSESYRCFCSLIDRALQPGTCHPYSVRFRLEHLLPADWSLLLGWCRRLTSCGGSFTYTSPGDISEQTESVGAVDDSEGHPAVVNAAFMHVVERCHGDFVPNNMIYHELQRRYTVYAPASPPPPEGPEDFTSFLGALQDSVCDGCLASLSEGDGNVGEDPLASQVPSLEATKHNQKVLGVGAAASMESEAHRQQGELLFNFFPHRVVVSDGIPCHSTHFVVMVNLKPVVPWHLMVVPIRCVGTLSALSAAEMEDLGHMIHLTISVLSHVLVKPAVTGTGDTSSNGGSRVERGCSPHSIGSPVPASVVGGGGFSIAIQQGELAGQTVPHLHVHVIPFDPRGKLAGEPEDEEQQRRQPPRTGAQMRKETEFLRPHFVRLANEKNMRGICATCG | not soluble |
| MKNIIACIDGSPTTFATCEASAWVASKINAPLILLHALDKTMRPVVSEFSGQIGLGSQEELLNELAELDEARSKVALKHGKKLLEEATEWVIKKGLTNVEQLQRHGSLLESLIDLENQLRVLVIGKLGEDQSSNKTIGSQLESIIRSIKSHTLVVTSPFSIPTSYLIAFDGSPTSEKLIEKAIKTPLLFGLDCHFVMVDDFAAKSAAFEKAAIKLKNAGLSVHEDILSGSVDEALLKYQKDHQIGMMVMGAYGHSTLRQFFLGSNTTKVLIKSEVPLLLIR | not soluble |
| MSLSSLGEELETKISEEVGFKPLGIKRILPAASTKLPFASLDNFAIDNHNNKYAAASGELLICGDLQKLREYVTNDNEEDNYEPEYKHEISNIIALKFMNGKLILVTKSGRICEYSTENLNQELMNHELKLDLVSVKTLPSKIIMLDSSNVLKGLSLSNLNLENIAENISSFDVLYDKLVYISVLKDIYVSDTISNGVNKEIILPESLSEELDDGYEALDIKILSENEYFVVFGNNVSPDESDPSYDHKTYVVSQKEESVVYQETFDIAPAFASVLRYPCYYNVILPGIFEEDKNVNIIGSATSSEISVWDSVNVVQPDQDSERAVFPISKETDEDTTPIGMCLDFSTVGEIPEPCPGVDNTDSLPLVYSLTNEGFLQINGFYHTGLIKAGKYDIKLLGERIYSIYEQDGGEVEEGHHHHHH | soluble |
| MGSDKIHHHHHHMRIGLFTDTYFPQVSGVSTSIRTLKEGLEKEGHEVYIFTTTDRNVKRFEDPTIIRLPSVPFISFTDRRVVYRGLISAYRIAKDYELDIIHTQTEFSLGLLGKLVAKALRIPVVHTYHTQYEDYVGYIAKGKLIKPSMVKYIMRTYLSDLDGVICPSRIVLNLLDGYGVKIPKQVIPTGIPVENYRREDISEETIKNLRTELGLADNDTMLLSLSRVSFEKNIQAILMHLSAVVDENPHVKLVIVGDGPYLSDLKELVHSLELENSVIFTGMVEHSQVAIYYKACDFFISASTSETQGLTYIESLASGRPIIAQSNPYLDDVISDKMFGTLYKKESDLADAILDAIAETPKMTQEAYEQKLYEISAENFSKSVYAFYLDFLISQKASVKEKVSLTIGNKDSHSTLRFVRKAVYLPKKVFTFTGRASKKVVKAPKRRISSIRDFLD | not soluble |
| SNAMTDAVLELPAATFDLPLSLSGGTQTTLRAHAGHWLVIYFYPKDSTPGATTEGLDFNALLPEFDKAGAKILGVSRDSVKSHDNFCAKQGFAFPLVSDGDEALCRAFDVIKEKNMYGKQVLGIERSTFLLSPEGQVVQAWRKVKVAGHADAVLAALKAHAKQ | soluble |
| MLNDVFILTQIKEGNIKAFETLFRQYYTPLRLYAASITGVPDVAEEIVEELFYVFWKDREKLEIFHSVKNYLYRSVRNRSIQYCEHQDVKRRYQDAILSVPVNIASPDPQEQIEYKELQQIINRTLEKLPERRLHIFRLHHTEGKKYSEIASLLSLSVKTVEKEMTRALRTLRKEIENYIQIS | not soluble |
